The numbers were not newly measured in PMC12206923, which cites them from elsewhere.

The target of this data set is dimeric IL-2 receptor (Homo sapiens) (UniProt P14784).
Sequence of UniProt P14784 (P14784 27-240, chain 1 of 2): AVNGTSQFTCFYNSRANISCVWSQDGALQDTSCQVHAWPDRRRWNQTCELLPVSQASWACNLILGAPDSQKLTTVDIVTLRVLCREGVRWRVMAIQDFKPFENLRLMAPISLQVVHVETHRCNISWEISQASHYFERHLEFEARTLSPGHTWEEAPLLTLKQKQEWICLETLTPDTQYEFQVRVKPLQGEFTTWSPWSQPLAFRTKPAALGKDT
Sequence of UniProt P14784 (P31785 23-262, chain 2 of 2, further chain): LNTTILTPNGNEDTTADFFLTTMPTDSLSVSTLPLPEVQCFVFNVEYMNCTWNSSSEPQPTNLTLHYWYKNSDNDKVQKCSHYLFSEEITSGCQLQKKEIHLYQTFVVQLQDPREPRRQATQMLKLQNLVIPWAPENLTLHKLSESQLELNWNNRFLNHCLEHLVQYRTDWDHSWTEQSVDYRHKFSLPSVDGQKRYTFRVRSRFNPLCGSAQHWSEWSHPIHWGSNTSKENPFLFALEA

Sequence of IL-2 (P60568 21-153): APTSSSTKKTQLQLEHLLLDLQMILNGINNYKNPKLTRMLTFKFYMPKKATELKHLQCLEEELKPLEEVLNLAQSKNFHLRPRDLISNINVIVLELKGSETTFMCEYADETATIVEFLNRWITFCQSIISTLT

The Kd is the free concentration of one partner at which half of the binding sites on the other are occupied at equilibrium, for simple one-to-one binding. Regarding IL-2 (from UniProt P60568), the Kd is 1 nM.
